This test has as its target CXC-chemokine receptor 4 (CXCR4) (human (endogenous in MOLM13 and CEM)) (UniProt P61073).

One substance from publication PMC9065173 can be followed below.

Where only a bound is given, the exact number is not on record here.

UniProt P61073, sequence (P61073 whole entry): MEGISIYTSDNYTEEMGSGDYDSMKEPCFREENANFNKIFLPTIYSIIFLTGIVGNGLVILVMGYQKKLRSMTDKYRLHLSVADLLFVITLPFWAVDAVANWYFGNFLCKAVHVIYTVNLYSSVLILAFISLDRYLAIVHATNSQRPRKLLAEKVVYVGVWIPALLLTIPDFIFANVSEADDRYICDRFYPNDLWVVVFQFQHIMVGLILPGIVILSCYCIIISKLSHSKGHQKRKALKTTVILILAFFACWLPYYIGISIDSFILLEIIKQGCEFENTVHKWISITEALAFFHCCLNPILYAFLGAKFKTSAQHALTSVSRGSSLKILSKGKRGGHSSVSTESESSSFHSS

As to “bifunctional T140-KLA peptide, ligated onto the RBCEV surface (T140-KLA-EVs)”, the apoptosis of MOLM13 cells after 4 days with T140-KLA-EVs (annexin V / PI staining, flow cytometry); no difference between T140-KLA-EVs and KLA-EVs in CXCR4-negative AsPC-1 cells was greater than 50%.
